# T1: NHERF3_3, Q5T2W1
# T1 sequence (Q5T2W1 238-333, limits assumed, looked up): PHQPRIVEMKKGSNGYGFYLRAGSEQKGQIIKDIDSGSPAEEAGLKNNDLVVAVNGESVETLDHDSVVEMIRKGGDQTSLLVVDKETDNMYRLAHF
# T2: MPP2, Q14168
# T2 sequence (Q14168 180-250, limits assumed, looked up): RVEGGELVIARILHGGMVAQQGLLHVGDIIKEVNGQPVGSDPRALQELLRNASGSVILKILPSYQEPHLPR
# T3: GRIP1_4, Q9Y3R0
# T3 sequence (Q9Y3R0 467-571, limits assumed, looked up): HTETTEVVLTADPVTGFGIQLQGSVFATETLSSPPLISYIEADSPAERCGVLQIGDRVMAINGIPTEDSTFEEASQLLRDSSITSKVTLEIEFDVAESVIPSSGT
# T4: APBA1_2, Q02410
# T4 sequence (Q02410 742-832, limits assumed, looked up): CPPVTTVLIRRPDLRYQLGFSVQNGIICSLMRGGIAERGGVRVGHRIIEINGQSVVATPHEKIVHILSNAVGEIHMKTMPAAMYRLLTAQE
# T5: ARHGAP21, Q5T5U3
# T5 sequence (Q5T5U3 45-169, limits assumed, looked up): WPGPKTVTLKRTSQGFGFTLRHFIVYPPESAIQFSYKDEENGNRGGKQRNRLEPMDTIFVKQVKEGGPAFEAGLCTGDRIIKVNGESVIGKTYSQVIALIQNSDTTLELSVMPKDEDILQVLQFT
# T6: MPP6, Q9NZW5
# T6 sequence (Q9NZW5 125-219, limits assumed, looked up): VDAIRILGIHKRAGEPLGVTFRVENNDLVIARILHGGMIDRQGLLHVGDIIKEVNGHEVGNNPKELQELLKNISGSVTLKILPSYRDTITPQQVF
# T7: APBA2_2, Q99767
# T7 sequence (Q99767 654-744, limits assumed, looked up): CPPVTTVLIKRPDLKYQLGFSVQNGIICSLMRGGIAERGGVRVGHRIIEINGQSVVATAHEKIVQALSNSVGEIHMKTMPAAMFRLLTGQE
# T8: SNTA1, Q13424
# T8 sequence (Q13424 82-180, limits assumed, looked up): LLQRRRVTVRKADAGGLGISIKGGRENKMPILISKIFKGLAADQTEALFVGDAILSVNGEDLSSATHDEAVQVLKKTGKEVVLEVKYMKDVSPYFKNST
# T9: PCLO, Q9Y6V0
# T9 sequence (Q9Y6V0 4491-4600, limits assumed, looked up): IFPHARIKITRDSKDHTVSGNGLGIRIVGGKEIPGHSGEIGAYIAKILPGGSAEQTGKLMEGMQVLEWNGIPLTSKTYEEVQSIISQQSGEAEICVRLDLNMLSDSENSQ
# Assays:
# Test in all cases: holdup assay
# Set-up in all cases: key: below the threshold = too weak to quantify, mostly under pKd 3.1 to 4
# Details in all cases: plain residues with an end cap or a label only (N-terminal biotin on a linker: ado-ado)
# [1] = biological target: GORASP2, Q9H8Y8
# [2] = biological target: GRID2IP_1, A4D2P6
# Sequence of GRID2IP_1, A4D2P6 (A4D2P6 1-87): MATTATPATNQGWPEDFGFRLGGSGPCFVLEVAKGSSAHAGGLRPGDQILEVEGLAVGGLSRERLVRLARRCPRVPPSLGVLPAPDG
# [3] = biological target: ARHGEF12, Q9NZN5-2
# Sequence of ARHGEF12, Q9NZN5-2 (Q9NZN5 other isoform, or with tags, fused parts or gaps): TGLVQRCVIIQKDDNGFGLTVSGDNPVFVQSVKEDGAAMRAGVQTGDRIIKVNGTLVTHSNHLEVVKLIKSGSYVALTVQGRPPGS
# [4] = biological target: T1, NHERF3_3, Q5T2W1
# [5] = biological target: T2, MPP2, Q14168
# [6] = biological target: MAGI3_2, Q5TCQ9
# Sequence of MAGI3_2, Q5TCQ9 (Q5TCQ9 398-503): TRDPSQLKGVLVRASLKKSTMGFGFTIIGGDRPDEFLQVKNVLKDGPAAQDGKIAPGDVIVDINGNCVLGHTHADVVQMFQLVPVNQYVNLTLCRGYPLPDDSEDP
# [7] = biological target: T3, GRIP1_4, Q9Y3R0
# [8] = biological target: DLG1_1, Q12959
# [9] = biological target: T4, APBA1_2, Q02410
# [10] = biological target: DLG4_1, P78352
# Sequence of DLG4_1, P78352 (P78352 62-152): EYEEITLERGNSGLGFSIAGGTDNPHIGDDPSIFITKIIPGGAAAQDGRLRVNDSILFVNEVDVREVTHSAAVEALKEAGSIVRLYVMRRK
# [11] = biological target: MAGI2_6, Q86UL8
# Sequence of MAGI2_6, Q86UL8 (Q86UL8 1141-1229): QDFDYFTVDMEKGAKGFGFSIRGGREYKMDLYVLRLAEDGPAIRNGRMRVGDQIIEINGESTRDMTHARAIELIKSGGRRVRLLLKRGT
# [12] = biological target: IL16_4, Q14005
# Sequence of IL16_4, Q14005 (Q14005 1229-1329): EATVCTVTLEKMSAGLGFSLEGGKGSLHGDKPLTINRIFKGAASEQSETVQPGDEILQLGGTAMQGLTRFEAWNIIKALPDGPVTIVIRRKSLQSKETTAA
# [13] = biological target: T5, ARHGAP21, Q5T5U3
# [14] = biological target: TJP2_1, Q9UDY2
# Sequence of TJP2_1, Q9UDY2 (Q9UDY2 24-128): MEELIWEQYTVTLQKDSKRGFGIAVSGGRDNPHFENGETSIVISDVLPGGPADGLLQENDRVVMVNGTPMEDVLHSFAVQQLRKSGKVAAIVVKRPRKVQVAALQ
# [15] = biological target: DLG2_2, Q15700
# Sequence of DLG2_2, Q15700 (Q15700 189-283): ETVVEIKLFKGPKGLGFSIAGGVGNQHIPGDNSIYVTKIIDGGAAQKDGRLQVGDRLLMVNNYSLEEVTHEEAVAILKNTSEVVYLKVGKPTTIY
# [16] = biological target: GRIP2_3, Q9C0E4
# Sequence of GRIP2_3, Q9C0E4 (Q9C0E4 238-339): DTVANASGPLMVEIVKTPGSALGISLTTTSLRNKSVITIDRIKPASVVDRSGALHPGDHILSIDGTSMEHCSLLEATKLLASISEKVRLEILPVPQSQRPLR
# [17] = biological target: T6, MPP6, Q9NZW5
# [18] = biological target: MAGI2_4, Q86UL8
# Sequence of MAGI2_4, Q86UL8 (Q86UL8 772-865): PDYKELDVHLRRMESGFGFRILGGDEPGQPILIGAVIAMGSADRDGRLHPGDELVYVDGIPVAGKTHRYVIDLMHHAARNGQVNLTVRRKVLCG
# [19] = biological target: T7, APBA2_2, Q99767
# [20] = biological target: Inadl_2, Q8NI35
# Sequence of Inadl_2, Q8NI35 (Q8NI35 238-335): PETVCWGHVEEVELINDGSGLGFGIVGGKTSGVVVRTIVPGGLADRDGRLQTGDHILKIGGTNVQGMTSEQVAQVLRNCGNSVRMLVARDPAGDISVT
# [21] = biological target: NHERF2_2, Q15599
# Sequence of NHERF2_2, Q15599 (Q15599 142-238): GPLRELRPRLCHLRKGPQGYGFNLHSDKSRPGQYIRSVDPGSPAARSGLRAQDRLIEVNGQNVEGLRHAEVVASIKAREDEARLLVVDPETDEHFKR
# [22] = biological target: FRMPD2_1, Q68DX3
# Sequence of FRMPD2_1, Q68DX3 (Q68DX3 770-861): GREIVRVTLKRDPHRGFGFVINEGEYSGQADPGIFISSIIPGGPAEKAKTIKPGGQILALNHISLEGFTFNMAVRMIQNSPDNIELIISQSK
# [23] = biological target: FRMPD4, Q14CM0
# Sequence of FRMPD4, Q14CM0 (Q14CM0 67-160): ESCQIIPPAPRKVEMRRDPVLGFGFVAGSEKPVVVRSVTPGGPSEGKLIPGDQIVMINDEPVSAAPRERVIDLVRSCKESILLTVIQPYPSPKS
# [24] = biological target: T8, SNTA1, Q13424
# [25] = biological target: CASK, O14936
# Sequence of CASK, O14936 (O14936 487-570): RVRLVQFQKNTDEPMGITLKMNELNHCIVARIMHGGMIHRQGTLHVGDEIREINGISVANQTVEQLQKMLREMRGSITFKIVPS
# [26] = biological target: T9, PCLO, Q9Y6V0
# [27] = biological target: PDLIM1, O00151
# Sequence of PDLIM1, O00151 (O00151 1-87): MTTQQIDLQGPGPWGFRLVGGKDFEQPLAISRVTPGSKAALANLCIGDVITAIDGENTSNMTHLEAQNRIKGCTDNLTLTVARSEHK
# [28] = biological target: LIMK2, P53671
# Sequence of LIMK2, P53671 (P53671 143-248): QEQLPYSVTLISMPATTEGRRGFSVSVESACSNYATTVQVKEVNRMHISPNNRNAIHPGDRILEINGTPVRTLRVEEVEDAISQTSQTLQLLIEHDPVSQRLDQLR
pKd [1],pKd [2],pKd [3],pKd [4],pKd [5],pKd [6],pKd [7],pKd [8],pKd [9],pKd [10],pKd [11],pKd [12],pKd [13],pKd [14],pKd [15],pKd [16],pKd [17],pKd [18],pKd [19],pKd [20],further results,Binder
below the threshold,below the threshold,4.95,below the threshold,below the threshold,below the threshold,below the threshold,below the threshold,below the threshold,below the threshold,below the threshold,below the threshold,3.76,below the threshold,below the threshold,below the threshold,below the threshold,below the threshold,below the threshold,below the threshold,pKd [21]: below the threshold; pKd [22]: below the threshold; pKd [23]: 3.54; pKd [24]: below the threshold; pKd [25]: below the threshold; pKd [26]: below the threshold; pKd [27]: below the threshold; pKd [28]: below the threshold,"ALPLPQSSTC [IGF1R, P08069]"
5.05,below the threshold,5.87,3.5,4.01,4.87,3.56,4.23,4.71,4.06,4,3.49,3.93,4.93,3.97,below the threshold,below the threshold,4.26,3.47,below the threshold,pKd [21]: 4.52; pKd [22]: 3.88; pKd [23]: 4.23; pKd [24]: 4.35; pKd [25]: below the threshold; pKd [26]: below the threshold; pKd [27]: below the threshold; pKd [28]: below the threshold,"REKKFFCTIL [GNG4, P50150]"
3.57,below the threshold,4.05,below the threshold,below the threshold,5.29,below the threshold,4.82,below the threshold,4.99,3.71,below the threshold,below the threshold,below the threshold,5.1,below the threshold,below the threshold,4.74,below the threshold,below the threshold,pKd [21]: below the threshold; pKd [22]: below the threshold; pKd [23]: below the threshold; pKd [24]: 4.59; pKd [25]: below the threshold; pKd [26]: below the threshold; pKd [27]: below the threshold; pKd [28]: below the threshold,"TGPWKNETTV [ADGRA1, Q86SQ6]"
4.17,below the threshold,3.81,below the threshold,below the threshold,5.02,below the threshold,4.08,3.71,4.04,3.68,below the threshold,below the threshold,3.59,4.39,below the threshold,below the threshold,below the threshold,below the threshold,below the threshold,pKd [21]: below the threshold; pKd [22]: below the threshold; pKd [23]: below the threshold; pKd [24]: below the threshold; pKd [25]: below the threshold; pKd [26]: below the threshold; pKd [27]: below the threshold; pKd [28]: below the threshold,"RRLQGTSSMV [GOLT1A, Q6ZVE7]"

# Source: paper PMC9482650, “Quantitative fragmentomics allow affinity mapping of interactomes” (Nature Communications, 2022)
